Test results from patent US12441790B2, “Binding proteins to the human thrombin receptor, PAR4” (MONASH UNIVERSITY, priority 2017, dated 2025).

Legend:
Assay type in all cases: binding
native PAR4 peptide = molecular target: T1, native PAR4 peptide (Homo sapiens, UniProt Q96RI0); assay: ELISA screening of hybridoma supernatants, native vs KLH-linked PAR4 peptide; details: first screening; second sub-clone
T1 construct: host or cells: synthetic peptide
Protocol: 96-well ELISA plates were coated with 50 μl of antigen diluted to a concentration of 4 μg/ml in coating buffer (0.1M Sodium Hydrogen Carbonate (NaHCO3) (Merck, #1.06329.0500)). Plates were incubated overnight at 4° C.
Wells were then washed with an automated plate washer (300 μl 1×PBS, 3 times). The wells were blocked with 200 μl of blocking buffer (3% BSA/1×PBS (BSA: (Sigma, #1001647742)) for 1 hour at room temperature followed by washing as above.
50 μl of undiluted hybridoma cell culture supernatant was added into appropriate wells and incubated at room temperature for 1 hour followed by washing as above. […] Wells were washed as above. A set of substrate tablets (1×silver, 1×gold) into 20 ml of ddH20 by shaking vigorously on the thermomixer for 6 mins at room temperature. 50 μl of substrate ([…]™ p-Nitrophenyl phosphate Tablets (Sigma-Aldrich, N2770-50SET)) was added into each well and incubated for 20-25 mins at room temperature. 50 μl of STOP solution (2M Sodium Hydroxide, Solid (NaOH) (Merck, Cas #1310-73-2)) was added into each well to stop the reaction. Absorbance was read at 405 nm immediately after adding STOP solution with the ELISA reader, using the ‘RdrOle4’ software.

hPAR4 peptide [1] = molecular target: T2, hPAR4 peptide (Homo sapiens, UniProt Q96RI0); assay: mAb capture SPR (Biacore, anti-mouse Fc capture)
T2 construct: host or cells: synthetic peptide
T2 sequence (Q96RI0 35-54 limits assumed): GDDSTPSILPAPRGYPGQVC
Protocol: Biacore analysis was performed on a Biacore T200 using two different methods either an anti-mouse Fc capture approach or using a similar method as described above using the ProteoOn system.
A series S CM5 sensor chip was activated with standard EDC/NHS amine coupling chemistry using the manufacturers recommended protocol with Goat anti-mouse IgG Fc. Anti-hPAR4 mAbs were captured at 1-2 ug/ml for 2 minutes at 10 ul/minute on flow cell 2 (FC2) and flow cell 1 (FC1) was used as a reference channel. […] Blank injections of buffer alone were also performed. All injections were performed in duplicate and in a random order. After each capture/injection/dissociation cycle the chip was regenerated with a 30 second injection of 0.1M Glycine pH2.0.
For the mAb capture method low levels of ligand mAb and analyte hPAR4 were used in an attempt to produce a 1:1 binding interaction, this method has been used successfully to measure kinetics and affinity KD's (Kamat V and Rafique A (2017) Analytical Biochemistry 530:75-86), despite using a whole IgG.
(§1) The kinetics of the binding interaction between the mAbs and hPAR4 was measured using Surface Plasmon Resonance (SPR; Biacore) by two different methods: 1. Anti-mouse Fc mAb capture method and 2. Streptavidin (SA) chip to capture biotinylated peptide. The ka(on) rate and kd(off) rates and KD were measured and fitted to a Langmuir model using the Biacore evaluation software.

hPAR4 peptide [2] = molecular target: T2, hPAR4 peptide; assay: ELISA of purified mAbs on hPAR4 peptide; details: dilutions of purified mAbs
Protocol: as §1
The experiment was completed with purified mAbs diluted in PBS instead of hybridoma supernatants.
The reactivity of seven purified anti-hPAR4 mAbs was analysed by ELISA (see Table 4).

B1: 5A.RC3: anti-PAR4 monoclonal antibody, IgG2a/K, VH SEQ ID NO:11 and VL SEQ ID NO:12 (antibody, V domains shown)
VH: QVQLVESGGGVVQPGRSLRLSCAASGFTLSNYGMHWVRQAPGKGLEWVSVIWYDGSNKHYADSVKGRFTISRDNSKNTLYLQMNSLRAEDTAVYYCARESIVEVLPPFDYWGQGTLVTVSS
VL: KIVLTQSPGTLSLSPGERVTLSCRASQRVRNNYLAWFQQKPGQAPRLFIYGASSRATGIPDRFSGSGSGTDFIFTISRLEPEDFAVYYCQQYGNSYTFGQGTKLEIK
modifications: VH of 5A.RC3; VL of 5A.RC3
Question: What does the source list for B1?
Answer: Fold binding native vs KLH-linked PAR4 peptide (native PAR4 peptide): 19.3; ka (hPAR4 peptide [1]): 330000 M⁻¹ s⁻¹; kd (hPAR4 peptide [1]): 0.00487 s⁻¹; reactivity with hPAR4 peptide by ELISA (hPAR4 peptide [2]): very similar binding curves
